Five molecules from patent US20250382588A1, “CHIMERIC AAV AND USES THEREOF” (priority 2023, published 2025) can be followed below.

The assay deals with striatal D1 MSNs (striatonigral projection neurons). Briefly: Retrograde labeling of striatonigral projection neurons after AAV injection into the SNr. Type of assay: in vivo, mice. The following applies: AAV8R capsid mutants; numbers of labeled neurons per animal. As for the experimental part:
To improve efficiency, multiple rounds of mutations of AAV capsids were performed on a series of different serotypes. Mutations were introduced at three sites in the AAV8 capsid protein to make AAV8R, including N385D, insertion of […] (SEQ ID NO: 31) at position 588, and TS711-712IN. Two additional mutations of V183E and N411S were incorporated into the AAV8R12 capsid protein (FIG. 1A). The labeling pattern of the AAV8R12 capsid and G88 promoter combination was determined.
First, the polypeptide fragment RGNLADODYTKTARQAATAD (SEQ ID NO.: 31) was inserted at the N587-R588 position; two other point mutations of the AAV2 Cap protein were made to develop rAAV2-retro. Similar mutations were then placed at equivalent positions for four other AAV serotypes (FIGS. 1A-IC and 25, TABLE 1), AAV1/5/6/8 (FIG. 1A). […] When administered into the SNr, 4.86±0.22 times EYFP positive MSNs in mice infected by AAV8R-hSyn-EYFP were observed as compared to those infected by rAAV2-retro-hSyn-EYFP (FIG. 2A-2C).
Baseline infectivity of rAAV2-retro was approximately 0.2±0.03×10^4 cells per striatal hemisphere (using a hSyn promoter) (TABLE 2). […] Compared to the current standard retrograde AAV, rAAV2-retro, AAV8R12 labeled 7.72±0.78-times more MSNs after nigral delivery (FIG. 2B-2C, TABLE 1). […] The AAV8R12 was generated using the AAV8R plasmid as a template.
Mice were anesthetized with sodium pentobarbital (Nembutal; 80 mg/kg, i.p.), and then placed into a stereotaxic device (KOPF). Eye cream was applied on both corneas to avoid dehydration. The skull above the targeted areas was thinned with a dental drill and carefully removed. Injections were conducted with a 10 μL syringe connected to a 33-Gauge needle (Neuros; Hamilton), using a microsyringe pump (Legato 130, KD Scientific). A total volume of 200 nL virus was injected into the SNr at a speed of 20 nL/min. The coordinates for the SNr were 3.4 mm posterior, 1.3 mm lateral, 4.8 mm ventral to the bregma.
HEK293T cells (ATCC) were co-transfected by calcium phosphate with an AAV vector plasmid, an AAV Rep-Cap plasmid (rAAV2-retro, AAV1R, AAV5R, AAV6R, AAV8R, and AAV8R1-14), and the pAdDeltaF6 helper plasmid (Addgene, 112867) harboring the adenoviral genes required for the AAV life cycle. HEK293T cells grown in 15 cm cell culture dishes were co-transfected with the mixture of three plasmids (1:1:1) at 80% confluency. 48-72 hours post-transfection, cells were collected and resuspended in a buffer containing 150 mM NaCl and 100 mM Tris-HCl (pH 8.0). Cells were lysed by repeated freeze-thaw cycles in liquid nitrogen and a 37° C. water bath. AAV particles were purified and concentrated using Millipore Amicon 100K columns (Merck Millipore, UFC910008). Encapsidated viral DNA was quantitated by qPCR (Thermo Fisher) with primers recognizing the viral WPRE and/or ITR sequences following denaturation of the AAV particles using Proteinase K. Titers were calculated as genome copies per milliliter.
Images were acquired using a confocal microscope (Carl Zeiss, LSM880) and an Axiolmager.Z1 microscope with apotome (Carl Zeiss). Brain structures were identified microscopically and in digital photos using a mouse brain atlas. To analyze the number of EYFP+ cells in the striatum, slices from rostral to caudal striatum were used. Every sixth section was analyzed, and numbers of EYFP+ cells were multiplied by six to acquire the approximate total number and mean number of cells per animal. Images were processed using ImageJ (NIH, USA), and final quantifications were independently performed manually by two blinded experimenters.

B1: AAV8R4: AAV8R capsid mutant R490Q, SEQ ID NO: 5 (protein)
chain: MAADGYLPDWLEDNLSEGIREWWALKPGAPKPKANQQKQDDGRGLVLPGYKYLGPFNGLDKGEPVNAADAAALEHDKAYDQQLQAGDNPYLRYNHADAEFQERLQEDTSFGGNLGRAVFQAKKRVLEPLGLVEEGAKTAPGKKRPVEPSPQRSPDSSTGIGKKGQQPARKRLNFGQTGDSESVPDPQPLGEPPAAPSGVGPNTMAAGGGAPMADNNEGADGVGSSSGNWHCDSTWLGDRVITTSTRTWALPTYNNHLYKQISNGTSGGATNDNTYFGYSTPWGYFDFNRFHCHFSPRDWQRLINNNWGFRPKRLSFKLFNIQVKEVTQNEGTKTIANNLTSTIQVFTDSEYQLPYVLGSAHQGCLPPFPADVFMIPQYGYLTLNDGSQAVGRSSFYCLEYFPSQMLRTGNNFQFTYTFEDVPFHSSYAHSQSLDRLMNPLIDQYLYYLSRTQTTGGTANTQTLGFSQGGPNTMANQAKNWLPGPCYRQQQVSTTTGQNNNSNFAWTAGTKYHLNGRNSLANPGIAMATHKDDEERFFPSNGILIFGKQNAARDNADYSDVMLTSEEEIKTTNPVATEEYGIVADNLQRGNLADQDYTKTARQAATADVNSQGALPGMVWQNRDVYLQGPIWAKIPHTDGNFHPSPLMGGFGLKHPPPQILIKNTPVPADPPTTFNQSKLNSFITQYSTGQVSVEIEWELQKENSKRWNPEIQYTSNYYKSINVDFAVNTEGVYSEPRPIGTRYLTRNL
Take B1: the “Labeling Efficiency in Striatonigral Pathway” value (“Labeling Efficiency” for short) is recorded as “+ (<5 k)”.

B2: AAV8R6: AAV8R capsid mutant F536Y, SEQ ID NO: 7 (protein)
chain: MAADGYLPDWLEDNLSEGIREWWALKPGAPKPKANQQKQDDGRGLVLPGYKYLGPFNGLDKGEPVNAADAAALEHDKAYDQQLQAGDNPYLRYNHADAEFQERLQEDTSFGGNLGRAVFQAKKRVLEPLGLVEEGAKTAPGKKRPVEPSPQRSPDSSTGIGKKGQQPARKRLNFGQTGDSESVPDPQPLGEPPAAPSGVGPNTMAAGGGAPMADNNEGADGVGSSSGNWHCDSTWLGDRVITTSTRTWALPTYNNHLYKQISNGTSGGATNDNTYFGYSTPWGYFDFNRFHCHFSPRDWQRLINNNWGFRPKRLSFKLFNIQVKEVTQNEGTKTIANNLTSTIQVFTDSEYQLPYVLGSAHQGCLPPFPADVFMIPQYGYLTLNDGSQAVGRSSFYCLEYFPSQMLRTGNNFQFTYTFEDVPFHSSYAHSQSLDRLMNPLIDQYLYYLSRTQTTGGTANTQTLGFSQGGPNTMANQAKNWLPGPCYRQQRVSTTTGQNNNSNFAWTAGTKYHLNGRNSLANPGIAMATHKDDEERYFPSNGILIFGKQNAARDNADYSDVMLTSEEEIKTTNPVATEEYGIVADNLQRGNLADQDYTKTARQAATADVNSQGALPGMVWQNRDVYLQGPIWAKIPHTDGNFHPSPLMGGFGLKHPPPQILIKNTPVPADPPTTFNQSKLNSFITQYSTGQVSVEIEWELQKENSKRWNPEIQYTSNYYKSINVDFAVNTEGVYSEPRPIGTRYLTRNL
Turning to B2, the “Labeling Efficiency” value was “+ (<5 k)”.

B3: AAV8R7: AAV8R capsid mutant A606S, SEQ ID NO: 8 (protein)
chain: MAADGYLPDWLEDNLSEGIREWWALKPGAPKPKANQQKQDDGRGLVLPGYKYLGPFNGLDKGEPVNAADAAALEHDKAYDQQLQAGDNPYLRYNHADAEFQERLQEDTSFGGNLGRAVFQAKKRVLEPLGLVEEGAKTAPGKKRPVEPSPQRSPDSSTGIGKKGQQPARKRLNFGQTGDSESVPDPQPLGEPPAAPSGVGPNTMAAGGGAPMADNNEGADGVGSSSGNWHCDSTWLGDRVITTSTRTWALPTYNNHLYKQISNGTSGGATNDNTYFGYSTPWGYFDFNRFHCHFSPRDWQRLINNNWGFRPKRLSFKLFNIQVKEVTQNEGTKTIANNLTSTIQVFTDSEYQLPYVLGSAHQGCLPPFPADVFMIPQYGYLTLNDGSQAVGRSSFYCLEYFPSQMLRTGNNFQFTYTFEDVPFHSSYAHSQSLDRLMNPLIDQYLYYLSRTQTTGGTANTQTLGFSQGGPNTMANQAKNWLPGPCYRQQRVSTTTGQNNNSNFAWTAGTKYHLNGRNSLANPGIAMATHKDDEERFFPSNGILIFGKQNAARDNADYSDVMLTSEEEIKTTNPVATEEYGIVADNLQRGNLADQDYTKTARQAATSDVNSQGALPGMVWQNRDVYLQGPIWAKIPHTDGNFHPSPLMGGFGLKHPPPQILIKNTPVPADPPTTFNQSKLNSFITQYSTGQVSVEIEWELQKENSKRWNPEIQYTSNYYKSINVDFAVNTEGVYSEPRPIGTRYLTRNL
For the molecule B3, the “Labeling Efficiency” value is given as “+ (<5 k)”.

B4: AAV8R5: AAV8R capsid mutant V125I, SEQ ID NO: 6 (protein)
chain: MAADGYLPDWLEDNLSEGIREWWALKPGAPKPKANQQKQDDGRGLVLPGYKYLGPFNGLDKGEPVNAADAAALEHDKAYDQQLQAGDNPYLRYNHADAEFQERLQEDTSFGGNLGRAVFQAKKRILEPLGLVEEGAKTAPGKKRPVEPSPQRSPDSSTGIGKKGQQPARKRLNFGQTGDSESVPDPQPLGEPPAAPSGVGPNTMAAGGGAPMADNNEGADGVGSSSGNWHCDSTWLGDRVITTSTRTWALPTYNNHLYKQISNGTSGGATNDNTYFGYSTPWGYFDFNRFHCHFSPRDWQRLINNNWGFRPKRLSFKLFNIQVKEVTQNEGTKTIANNLTSTIQVFTDSEYQLPYVLGSAHQGCLPPFPADVFMIPQYGYLTLNDGSQAVGRSSFYCLEYFPSQMLRTGNNFQFTYTFEDVPFHSSYAHSQSLDRLMNPLIDQYLYYLSRTQTTGGTANTQTLGFSQGGPNTMANQAKNWLPGPCYRQQRVSTTTGQNNNSNFAWTAGTKYHLNGRNSLANPGIAMATHKDDEERFFPSNGILIFGKQNAARDNADYSDVMLTSEEEIKTTNPVATEEYGIVADNLQRGNLADQDYTKTARQAATADVNSQGALPGMVWQNRDVYLQGPIWAKIPHTDGNFHPSPLMGGFGLKHPPPQILIKNTPVPADPPTTFNQSKLNSFITQYSTGQVSVEIEWELQKENSKRWNPEIQYTSNYYKSINVDFAVNTEGVYSEPRPIGTRYLTRNL
As to B4, the “Labeling Efficiency” value was “+ (<5 k)”.

B5: AAV8R8: AAV8R capsid mutant T495A, SEQ ID NO: 9 (protein)
chain: MAADGYLPDWLEDNLSEGIREWWALKPGAPKPKANQQKQDDGRGLVLPGYKYLGPFNGLDKGEPVNAADAAALEHDKAYDQQLQAGDNPYLRYNHADAEFQERLQEDTSFGGNLGRAVFQAKKRVLEPLGLVEEGAKTAPGKKRPVEPSPQRSPDSSTGIGKKGQQPARKRLNFGQTGDSESVPDPQPLGEPPAAPSGVGPNTMAAGGGAPMADNNEGADGVGSSSGNWHCDSTWLGDRVITTSTRTWALPTYNNHLYKQISNGTSGGATNDNTYFGYSTPWGYFDFNRFHCHFSPRDWQRLINNNWGFRPKRLSFKLFNIQVKEVTQNEGTKTIANNLTSTIQVFTDSEYQLPYVLGSAHQGCLPPFPADVFMIPQYGYLTLNDGSQAVGRSSFYCLEYFPSQMLRTGNNFQFTYTFEDVPFHSSYAHSQSLDRLMNPLIDQYLYYLSRTQTTGGTANTQTLGFSQGGPNTMANQAKNWLPGPCYRQQRVSTTAGQNNNSNFAWTAGTKYHLNGRNSLANPGIAMATHKDDEERFFPSNGILIFGKQNAARDNADYSDVMLTSEEEIKTTNPVATEEYGIVADNLQRGNLADQDYTKTARQAATADVNSQGALPGMVWQNRDVYLQGPIWAKIPHTDGNFHPSPLMGGFGLKHPPPQILIKNTPVPADPPTTFNQSKLNSFITQYSTGQVSVEIEWELQKENSKRWNPEIQYTSNYYKSINVDFAVNTEGVYSEPRPIGTRYLTRNL
On to B5, for which the “Labeling Efficiency” value is “+ (<5 k)”.
